Laboratory results from patent publication US20230227538A1 (published 2023).
Positions count from the first letter of the chain named.

Columns and labels:
SpikeS2P = assay: SPR
[1] = biological target: SARS-CoV-2 Spike receptor binding domain (RBD) (SARS-CoV-2, UniProt P0DTC2 319-541); assay: flow
SC2 spike ECD = assay: SPR

B1: mNb6 (VHH)
VHH: QVQLVESGGGLVQAGGSLRLSCAASGYIFGRNAMGWYRQAPGKERELVAGITRRGSITYYADSVKGRFTISRDNAKNTVYLQMNSLKPEDTAVYYCAADPASPAYGDYWGQGTQVTVSS
For B1, the Kd (SpikeS2P) was 0.45 nM.

B2: Nb6 (AeroNab6, NbCOV6, clone pNbCOV006A) (VHH)
VHH: B1 VHH with Y27I, Y105P
B2 was tested, and the EC50 [1] was 30 nM.

B3: NbCOV11 (VHH)
VHH: HVQLVESGGGLVQAGGSLRLSCAVSGASAERVGWFRRAPGKEREFVAAIGANGGSTNYLDSVKGRFTISRDNAKNTVYLQMNSLKPQDTAVYYCAARNLETFDYTYWGRGTQVTVSS
With B3 the Kd (SC2 spike ECD) was 141 nM.
